Consider one molecule from US20070244048A1 (published 2007).

Experiment [1] addresses T1, human NMUR1 (human, UniProt Q9HB89 1-426).
T1 construct: whole, on cells; Stably expressed in cells (FLIPR); also called hNMUR1; human R1
T1 sequence (looked up): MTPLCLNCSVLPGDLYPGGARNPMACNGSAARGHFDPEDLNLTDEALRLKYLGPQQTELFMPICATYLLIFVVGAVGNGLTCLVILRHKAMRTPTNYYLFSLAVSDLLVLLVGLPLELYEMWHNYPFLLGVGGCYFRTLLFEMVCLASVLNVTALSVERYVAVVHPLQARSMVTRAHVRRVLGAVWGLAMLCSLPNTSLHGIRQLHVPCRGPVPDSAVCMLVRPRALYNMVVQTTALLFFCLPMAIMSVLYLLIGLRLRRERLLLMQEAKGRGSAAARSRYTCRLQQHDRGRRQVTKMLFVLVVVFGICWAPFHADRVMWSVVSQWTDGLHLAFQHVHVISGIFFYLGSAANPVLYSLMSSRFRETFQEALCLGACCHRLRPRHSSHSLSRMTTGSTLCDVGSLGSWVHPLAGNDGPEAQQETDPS
Description: 125I-hNMU-25 displacement, HEK cell membranes. A digest of the protocol:
(§1)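 HEK cell membranes (2-5 μg) incubated with […] ¹²⁵I-hNMU-25 and peptides for 80 min at room temperature in TrisCl pH 7.4 buffer with MgCl₂, EDTA, bacitracin and phosphoramidon. Bound ligand collected by filtration and scintillation counting; nonspecific binding with 1 μM hNMU-25. IC₅₀ from curve fitting.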

Experiment [2] addresses T2, human NMUR2 (human, UniProt Q9GZQ4 1-415).
T2 construct: whole, on cells; Stably expressed in cells (FLIPR); also called hNMUR2; human R2
Description: 125I-hNMU-25 displacement, HEK cell membranes. A digest of the protocol:
as §1

The target in experiment [3] is T3, mouse NMUR1-ATG (mouse, UniProt O55040 1-428).
T3 sequence (looked up): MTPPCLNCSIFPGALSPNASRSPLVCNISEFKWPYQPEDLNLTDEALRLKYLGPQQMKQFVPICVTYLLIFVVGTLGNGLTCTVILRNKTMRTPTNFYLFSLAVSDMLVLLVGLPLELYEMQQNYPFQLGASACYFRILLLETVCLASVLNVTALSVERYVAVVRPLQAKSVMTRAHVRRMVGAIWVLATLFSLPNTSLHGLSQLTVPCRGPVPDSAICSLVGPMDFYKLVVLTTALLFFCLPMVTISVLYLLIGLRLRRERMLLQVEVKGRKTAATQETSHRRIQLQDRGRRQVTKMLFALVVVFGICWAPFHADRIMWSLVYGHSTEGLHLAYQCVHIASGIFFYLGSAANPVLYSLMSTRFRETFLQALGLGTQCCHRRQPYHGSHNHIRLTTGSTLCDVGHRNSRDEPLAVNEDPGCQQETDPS
The experiment in a line: cell-based or functional assay.

The target in experiment [4] is T4, rat NMUR1-TTG (rat, UniProt Q9JJI5 1-425).
T4 sequence (looked up): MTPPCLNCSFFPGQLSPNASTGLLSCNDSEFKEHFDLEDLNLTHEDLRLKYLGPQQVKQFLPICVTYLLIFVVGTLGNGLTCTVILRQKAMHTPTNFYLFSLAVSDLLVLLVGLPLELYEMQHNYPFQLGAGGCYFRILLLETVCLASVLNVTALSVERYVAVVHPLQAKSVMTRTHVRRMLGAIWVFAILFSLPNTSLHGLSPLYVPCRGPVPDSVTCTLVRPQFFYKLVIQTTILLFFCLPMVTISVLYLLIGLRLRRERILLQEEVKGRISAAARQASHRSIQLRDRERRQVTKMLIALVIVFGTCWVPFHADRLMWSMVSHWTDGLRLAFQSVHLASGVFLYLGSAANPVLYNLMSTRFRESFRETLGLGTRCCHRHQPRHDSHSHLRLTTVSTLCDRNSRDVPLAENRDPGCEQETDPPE
The experiment in a line: cell-based or functional assay.

In experiment [5] the target is T5, rat NMUR1-ATG (rat, UniProt Q9JJI5 1-425).
T5 sequence (looked up): T4 sequence (looked up)
Description: cell-based or functional assay.

The target of experiment [6] is T6, rat NMUR2 (rat, UniProt Q9ESQ4 1-395). The experiment in a line: cell-based or functional assay.
The target in experiment [7] is T1, human NMUR1. Description: cell-based or functional assay.
Experiment [8] deals with mouse NMUR2 (mouse, UniProt Q8BZ39 1-395). The experiment in a line: cell-based or functional assay.
For experiment [9], the target named is T3, mouse NMUR1-ATG. The experiment in a line: 125I-hNMU-25 displacement, cell membranes.
Experiment [10] concerns the target T5, rat NMUR1-ATG. Description: 125I-hNMU-25 displacement, cell membranes.
Experiment [11] concerns the target T6, rat NMUR2. Description: 125I-hNMU-25 displacement, cell membranes.
Experiment [12] has as its target T2, human NMUR2. Description: 125I-hNMU-25 displacement, cell membranes.
The target of experiment [13] is T7, mouse NMUR1-CTG (mouse, UniProt O55040 1-428).
T7 construct: whole, on cells; Cell line with the start codon (CTG) as predicted from genomic databases; also called mouse R1-CTG
T7 sequence (looked up): T3 sequence (looked up)
Description: 125I-hNMU-25 displacement, cell membranes.

No end group written: not given here.

T2 sequence (Q9GZQ4 whole entry): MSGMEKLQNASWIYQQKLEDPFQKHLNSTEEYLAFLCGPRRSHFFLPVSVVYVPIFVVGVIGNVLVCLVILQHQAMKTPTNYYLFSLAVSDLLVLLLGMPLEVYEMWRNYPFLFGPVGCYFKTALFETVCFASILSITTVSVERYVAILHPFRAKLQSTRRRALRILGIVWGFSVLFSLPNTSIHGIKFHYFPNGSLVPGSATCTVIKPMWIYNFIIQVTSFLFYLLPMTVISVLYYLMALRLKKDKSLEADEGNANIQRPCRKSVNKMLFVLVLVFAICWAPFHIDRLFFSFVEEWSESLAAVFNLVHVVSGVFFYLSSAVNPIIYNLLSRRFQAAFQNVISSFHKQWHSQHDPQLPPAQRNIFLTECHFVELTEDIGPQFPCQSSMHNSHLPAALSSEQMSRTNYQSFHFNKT
T6 sequence (Q9ESQ4 whole entry): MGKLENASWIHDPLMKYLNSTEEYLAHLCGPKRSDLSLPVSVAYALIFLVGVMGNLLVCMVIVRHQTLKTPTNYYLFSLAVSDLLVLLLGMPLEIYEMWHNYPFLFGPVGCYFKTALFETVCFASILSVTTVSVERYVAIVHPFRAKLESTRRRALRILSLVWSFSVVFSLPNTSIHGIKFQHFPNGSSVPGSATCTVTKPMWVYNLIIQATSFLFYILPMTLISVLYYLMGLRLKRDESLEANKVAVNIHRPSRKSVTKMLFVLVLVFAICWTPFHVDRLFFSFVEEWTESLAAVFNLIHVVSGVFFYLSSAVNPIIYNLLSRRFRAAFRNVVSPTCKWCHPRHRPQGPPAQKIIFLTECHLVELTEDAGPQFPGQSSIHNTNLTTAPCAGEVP
mouse NMUR2, sequence (Q8BZ39 whole entry): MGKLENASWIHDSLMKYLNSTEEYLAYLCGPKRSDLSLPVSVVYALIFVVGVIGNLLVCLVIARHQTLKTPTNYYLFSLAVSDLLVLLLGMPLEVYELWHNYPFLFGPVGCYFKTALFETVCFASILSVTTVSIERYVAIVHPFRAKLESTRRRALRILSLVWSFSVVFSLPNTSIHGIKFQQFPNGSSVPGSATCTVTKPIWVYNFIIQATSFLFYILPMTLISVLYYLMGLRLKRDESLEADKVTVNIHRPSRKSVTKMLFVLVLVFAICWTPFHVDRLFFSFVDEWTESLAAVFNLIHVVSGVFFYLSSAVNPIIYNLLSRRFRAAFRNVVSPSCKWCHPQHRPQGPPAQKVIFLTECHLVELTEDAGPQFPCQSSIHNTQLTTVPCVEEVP

As usually defined, the IC50 is the concentration that gives 50% inhibition. The low end stands for higher potency, the high end for lower potency. As to FRVDEEFQSPFASQSRGYFLFRPRN-NH2 (also called hNMU-25; native hNMU) [human NMU-25], the “% activity (binding)” value in experiment [1] and in [2] was 100% throughout. In addition, the IC50 in experiment [1] is 0.47 nM; in [2] it was 0.19 nM; in [9], 0.4 nM; in experiment [10], 1.2 nM; in [11], 0.6 nM; in experiment [12], 0.056 nM. This molecule also had an IC50 in [13] of 0.15 nM. For the same molecule, the “IC50 (nM), functional” value came out at 0.9 nM in [3]; 1 nM in [4]; 1.3 nM in experiment [5]; 1.6 nM in experiment [6]; 0.2 nM in [7]; 0.2 nM in experiment [8].
